# Test results: patent publication US20240287172A1 (SCIRHOM, published 2024)
# T1: hiR2-FL-G587A-T7 (human, UniProt Q6PJF5 1-856)
# T1 sequence: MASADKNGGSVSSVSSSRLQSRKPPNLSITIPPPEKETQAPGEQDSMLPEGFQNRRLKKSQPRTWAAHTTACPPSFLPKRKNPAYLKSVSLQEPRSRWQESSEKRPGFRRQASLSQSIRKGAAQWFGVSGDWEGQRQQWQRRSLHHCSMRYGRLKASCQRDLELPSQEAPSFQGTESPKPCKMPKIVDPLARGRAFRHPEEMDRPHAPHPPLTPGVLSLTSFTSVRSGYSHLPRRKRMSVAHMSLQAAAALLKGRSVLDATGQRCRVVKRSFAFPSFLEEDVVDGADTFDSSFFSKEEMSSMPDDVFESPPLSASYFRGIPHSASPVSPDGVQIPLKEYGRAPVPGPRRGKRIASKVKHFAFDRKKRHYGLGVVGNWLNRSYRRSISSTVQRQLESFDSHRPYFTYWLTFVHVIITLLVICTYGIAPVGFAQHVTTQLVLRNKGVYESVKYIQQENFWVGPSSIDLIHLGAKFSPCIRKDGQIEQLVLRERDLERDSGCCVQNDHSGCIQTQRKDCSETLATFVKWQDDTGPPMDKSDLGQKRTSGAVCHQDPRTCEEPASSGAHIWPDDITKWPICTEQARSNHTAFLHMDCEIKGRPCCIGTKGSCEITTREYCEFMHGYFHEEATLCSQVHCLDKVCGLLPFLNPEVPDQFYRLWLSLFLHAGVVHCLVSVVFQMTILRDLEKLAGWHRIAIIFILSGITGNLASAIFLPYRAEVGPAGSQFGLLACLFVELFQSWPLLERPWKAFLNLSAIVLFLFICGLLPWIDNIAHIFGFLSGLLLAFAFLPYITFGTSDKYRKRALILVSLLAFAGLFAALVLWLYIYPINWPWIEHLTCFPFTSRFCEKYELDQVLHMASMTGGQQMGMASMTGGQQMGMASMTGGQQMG
# Molecular target: T1, hiR2-FL-G587A-T7
# Experiment: FACS on MEF-DKO cells expressing the variant, 3 µg/ml antibody
# Method in brief: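 Read-out is PE fluorescence by flow cytometry after two-step staining: antibody at 3 μg/ml for 1 hour on ice, then PE-labelled goat anti-mouse IgG F(ab′)2 (1:100) for 1 hour on ice.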
row,Binder,loss of binding vs wild type
1,"antibody 48 (antibody, V domains shown, mouse IgG, kappa light chain; also called clone #48; purified antibody 48) VH: QVQLQQSGTELVRPGTSVKVSCKASGYAFTNYLIEWVKQRPGQGLEWIGVINPGSGFTKYNEKFKGKATLTADKSSSTVYMHLSSLTSEDSAVYFCARGLYRAMDYWGQGTSVTVSS VL: DIQMTQSPASQSASLGESVTITCLASQTIATWLAWYQQKPGKSPQLLIYGATTLADGVPSRFSGGGSGTKFSFKISSLQAEDFVSYYCQQLYSTPYTFGGGTKLEIK",≥ 30%
2,"antibody 50 (antibody, V domains shown, mouse IgG, kappa light chain; also called clone #50; purified antibody 50) VH: QVQLQQSGAELVRPGASVKVSCKASGYAFSNYLIEWVKQRPGQGLEWIGVINPGSGFTKYNEKFKGKATLTADKSSSTAYMQLSSLTSEDSAVYFCARGLYRAMDYWGQGTSVTVSS VL: DIQMTQSPASQSASLGESVTITCLASQTIGTWLAWYQQKPGKSPQLLIYAAASLADGVPSRFSGGGSGTKFSFKISSLQAEDFVNYYCQQIYSTPYTFGGGTKLEIK",≥ 60%
3,"antibody 43 (antibody, V domains shown, mouse IgG, kappa light chain; also called clone #43; purified antibody 43) VH: QVALKESGPGILQPSQTLSLTCSFSGFSLSTFGMGVGWIRQSSGKGLEWLANIWWDDDKYYNPALKSRLTISKDASKNQAFLKIANVDTADTATYYCARIGNYGSNYWYFDVWGTGTTVTVSS VL: QIVLTQSPAIMSASPGERVTMTCSANSRISYMYWYQQKPGSSPRLLIYDTSNLASGVPVRFSGSGSGTSYSLTISRMEAEDAATYNCQQWSSYPLTFGAGTKLELK",≥ 30%
4,"antibody 44 (antibody, V domains shown, mouse IgG, kappa light chain; also called clone #44; purified antibody 44) VH: QVTLKESGPGILQPSQTLSLTCSFSGFSLSTFGMGVGWIRQPSEKGLEWLAHIWWDDDKYYNPALKSRLTISKDTSKNQIFLKITNVDTAETATYYCSRIGNYGSNYWYFDVWGTGTTVTVSS VL: QIVLTQSPAVMSASPGEKVTMTCTASSSVYYMYWYQQTPGSSPRLLIYDTSNLASGVPVRFSGSGSGTSYSLTISRMEAEDAATYYCQQWNTYPLTFGAGTKLELK",≥ 30%
